{"source": "patent US20130196320A1", "about": "“METHOD FOR IMPROVING CLEAVAGE OF DNA BY ENDONUCLEASE SENSITIVE TO METHYLATION” (CELLECTIS, priority 2010, published 2013)", "molecules": {"B1": {"name": "XPC4: engineered meganuclease (SEQ ID NO: 2) designed to cleave xeroderma pigmentosum group C gene (XPC) (protein)", "chain": "MANTKYNEEFLLYLAGFVDGDGSIIAQIKPNQSHKFKHALQLTFKVTQKTQRRWFLDKLVDEIGVGYVQDSGSVSNYILSEIKPLHNFLTQLQPFLELKQKQANLALKIIEQLPSAKESPDKFLEVCTWVDQVAALNDSKTRKTTSETVRAVLDSLSEKKKSSPAAGGSDKYNQALSKYNQALSKYNQALSGGGGSNKKFLLYLAGFVDSDGSIIAQIKPNQSHKFKHQLSLAFQVTQKTQRRWFLDKLVDRIGVGYVRDRGSVSDYILSKIKPLHNFLTQLQPFLKLKQKQANLVLKIIEQLPSAKESPDKFLEVCTWVDQVAALNDSKTRKTTSETVRAVLDSLSEKKKSSP"}}, "test_system": "XPC4 target locus in 293H cells", "experiment": "Meganuclease-induced mutagenesis at XPC4 target locus by deep sequencing, siRNA targeting DNMT1", "assay_type": "cell-based, human", "details": "for mutagenesis, PCR fragments carrying a mutation: XPC4 meganuclease plasmid", "experimental": "The human 293H cells (ATCC) were plated at a density of 1.2×10^6 cells per 10 cm dish in complete medium (DMEM supplemented with 2 mM L-glutamine, penicillin (100 IU/ml), streptomycin (100 μg/ml), amphotericin B (Fongizone: 0.25 μg/ml, Invitrogen-Life Science) and 10% FBS). The next day, cells were transfected with 5 μg of empty vector pCLS003 (SEQ ID NO: 65) and 1 nM or 5 nM of si_DNMT1 composed of mixture of two siRNA DNMT1—1 ([…], SEQ ID NO: 66) and DNMT1—2 ([…], SEQ ID NO: 67) or with si_AS, a siRNA control with no known human target, using Lipofectamine 2000 as transfection reagent (Invitrogen) according to the manufacturer's protocol. The day after, cells were re-platted at the density of 1.2×10^6 cells per 10 cm. 24 hours after, cells were transfected again with 1 nM or 5 nM of siDNMT1 or si_AS in presence of 3 μg of meganuclease expressing vector (pCLS2510; SEQ ID NO: 68) and 2 μg of empty vector or 5 μg of empty vector (SEQ ID NO: 65), with Lipofectamine 2000 transfection reagent (Invitrogen) according to the manufacturer's protocol.\nAfter genomic DNA extraction, the XPC4 target locus was amplified with specific primers flanked by specific adaptator needed for HTS sequencing on the 454 sequencing system (454 Life Sciences)\n5,000 to 10,000 sequences per sample were analyzed."}
{"molecule": "B1", "values": [{"measurement": "mutagenesis, PCR fragments carrying a mutation", "setting": "Si_AS 1 nM (control siRNA)", "value": 0.3, "unit": "%"}, {"measurement": "mutagenesis, PCR fragments carrying a mutation", "setting": "Si_AS 5 nM (control siRNA)", "value": 0.2, "unit": "%"}, {"measurement": "mutagenesis, PCR fragments carrying a mutation", "setting": "Si_DNMT1 1 nM", "value": 4.8, "unit": "%"}, {"measurement": "mutagenesis, PCR fragments carrying a mutation", "setting": "Si_DNMT1 5 nM", "value": 7.6, "unit": "%"}, {"measurement": "PCR fragments carrying a mutation", "setting": "XPC4 meganuclease, non relevant siRNA (si_AS)", "value": "0.2-0.3%"}, {"measurement": "mutations", "setting": "XPC4 meganuclease, samples treated with si_DNMT1", "value": "up to 7%"}]}
